Source: the supplement of paper PMC9732359
± gives the uncertainty stated by the source.

Experiment: protein stability index of a GFP-peptide fusion (yeast GPS) (PSI 1-4); higher = more stable; sorted into four equal gates, so the index is relative within each strain
Outline: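 Peptides tiling yeast proteins in 17-residue segments were fused downstream of GFP, with Cherry expressed from the same plasmid. As a pooled library in yeast, mid-log cultures grown in leucine-free medium were sorted into four equal gates by GFP/Cherry fluorescence ratio. Gate plasmids were PCR-amplified and Illumina-sequenced, and barcodes linked reads to strains. Each peptide received a protein stability index equal to the sum of each gate's read frequency times its gate number.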

| Sequence | protein stability index (doa10∆) | protein stability index (pdr5∆) | protein stability index (san1∆) | protein stability index (ubr1∆) |
| --- | --- | --- | --- | --- |
| ISLPKGKGIKLSIAEER [RPS4A] | 2.03 ± 0.15 | 2.18 ± 0.28 | 2.62 ± 0.081 | 2.47 ± 0.077 |
| IHNYDSKKSTITVRYWL [RGR1] | 3 ± 0.087 | 2.88 ± 0.081 | 2.69 ± 0.067 | 3.09 ± 0.049 |
| NTLNIDNTARVIFDASI [BRN1] | 2.14 ± 0.05 | 2.28 ± 0.039 | 2.23 ± 0.056 | 2.37 ± 0.032 |
| EEAAGTKMFEDRREKAE [SMC2] | 3.4 ± 0.15 | 3.36 ± 0.18 | 3.26 ± 0.089 | 3.6 ± 0.11 |
| LEQIQVQLKDANSQIQA [YIL149C/MLP2] | 2.55 ± 0.12 | 2.41 ± 0.27 | 2.45 ± 0.21 | 2.43 ± 0.15 |
| HGTYFLDNMTYSSVAGT [RRP4] | 2.21 ± 0.051 | 2.3 ± 0.043 | 2.45 ± 0.062 | 1.72 ± 0.034 |
| LLRPSSKVIIKFLQVMQ [RPS22B] | 1.87 ± 0.069 | 1.61 ± 0.044 | 1.72 ± 0.13 | 1.82 ± 0.058 |
| LDKIYTRPISSQVLDLA [SMC2] | 1.53 ± 0.079 | 2.01 ± 0.08 | 1.25 ± 0.15 | 1.27 ± 0.054 |
| AIDHLKAELEKQKSWVP [YIL149C/MLP2] | 3.05 ± 0.076 | 2.83 ± 0.073 | 2.98 ± 0.11 | 2.91 ± 0.051 |
| KLRAARAKAMKFADGFL [RPS3] | 3.3 ± 0.17 | 3.03 ± 0.14 | 2.44 ± 0.29 | 3.16 ± 0.065 |
| LNVGNVLPLGSVPEGTI [RPL2A] | 3.2 ± 0.077 | 3.15 ± 0.082 | 3.26 ± 0.1 | 3.28 ± 0.061 |
| ILGQTMSIGTGSFKVVK [RPO31] |  | 2.47 ± 0.13 | 1.97 ± 0.12 | 2.99 ± 0.15 |
| GTLEYGTCFGGSKLEDM [RET1] | 3.17 ± 0.072 | 3.16 ± 0.072 | 3.36 ± 0.061 | 3.29 ± 0.065 |
| QDVDFYKNLDRGFSKDL [RRP6] | 3.44 ± 0.13 | 3.75 ± 0.15 | 3.25 ± 0.074 | 3.23 ± 0.097 |
| AQFQYTLDRNTAAETFK [RPL8A] | 2.15 ± 0.082 | 2.08 ± 0.082 | 2.64 ± 0.27 | 2.06 ± 0.049 |
| IGIVEIAHENEQKWLIY [SRB8] | 1.69 ± 0.067 | 1.83 ± 0.051 | 1.58 ± 0.086 | 1.54 ± 0.034 |
| LRLFNAPDSEYLCFILS [SNF2] | 2.28 ± 0.044 | 2.17 ± 0.044 | 2.15 ± 0.042 | 1.94 ± 0.031 |
| LLGTMAGGAADCQFWET [PRE2] | 1.61 ± 0.069 | 2.6 ± 0.078 | 2.22 ± 0.084 | 2.65 ± 0.078 |
| LPSAVDGENDKKEATKP [YLR335W/NUP2] | 3.36 ± 0.082 | 3.29 ± 0.067 | 3.05 ± 0.056 | 3.37 ± 0.059 |
| YYSLNIDYHKTAKETKM [RPN11] | 2.75 ± 0.067 | 2.77 ± 0.072 | 2.87 ± 0.053 | 2.74 ± 0.06 |
| ILEESLNAIILKLEKLN [SMC3] | 1.66 ± 0.061 | 1.72 ± 0.062 | 1.5 ± 0.14 | 2.24 ± 0.07 |
| QHTTESDNISRKYEISF [RPB2] | 3.16 ± 0.11 | 3.17 ± 0.088 | 2.92 ± 0.098 | 3.2 ± 0.11 |
| NDLQSETKTKKEKIKGL [SMC4] | 3.32 ± 0.2 | 3.25 ± 0.25 |  | 3.5 ± 0.12 |
| ELISYRNESLKNNSSIR [SRB8] | 3.15 ± 0.068 | 3.05 ± 0.11 | 3.05 ± 0.08 | 3.05 ± 0.049 |

| Sequence | protein stability index (doa10∆) | protein stability index (pdr5∆) | protein stability index (san1∆) | protein stability index (ubr1∆) |
| --- | --- | --- | --- | --- |
| SDLVNQGIIYAKVNRPA [RPN5] | 2.97 ± 0.15 | 3.66 ± 0.26 | 2.84 ± 0.17 |  |
| ADINLEESIRESLQKRE [SIR3] | 3.4 ± 0.085 | 3.28 ± 0.088 | 3.09 ± 0.12 | 3.36 ± 0.062 |
| TEHSKVTRFDEKQIEEL [SRB6] | 3.2 ± 0.14 | 3.26 ± 0.086 | 3.11 ± 0.081 | 3.26 ± 0.07 |
| LTFMTCNSLHIPQDFEN [ESC2] | 2.17 ± 0.045 | 2.46 ± 0.047 | 2.19 ± 0.089 | 2.66 ± 0.04 |
| INELFKKYTQNNPLLLI [RPN8] | 1.85 ± 0.071 | 1.48 ± 0.05 | 1.37 ± 0.14 | 1.11 ± 0.049 |
| THLEIEPFTILGAVAGL [RET1] | 1.42 ± 0.041 | 1.91 ± 0.054 | 2.08 ± 0.12 | 2.04 ± 0.048 |
| LRLKLFLYEILSSLKSF [SRB8] | 1.53 ± 0.063 | 2.29 ± 0.082 | 1.81 ± 0.082 | 2.11 ± 0.085 |
| DQKETKKGESEKDASGK [YOR098C/NUP1] | 3.45 ± 0.18 | 3.37 ± 0.15 | 3.49 ± 0.097 | 3.37 ± 0.1 |
| LVQLKKFSDLKFILQIL [YML103C/NUP188] | 2.15 ± 0.08 | 1.91 ± 0.075 | 2.34 ± 0.11 | 1.44 ± 0.059 |
| IRKGANDGEVYQKIFKP [PRE9] | 2.06 ± 0.098 | 1.81 ± 0.068 |  | 1.83 ± 0.059 |
| EEEATMTTSAVSPTVGK [YIL149C/MLP2] | 3.25 ± 0.046 | 3.3 ± 0.037 | 3.229 ± 0.029 | 3.2 ± 0.035 |
| VDKNGAHLYMLEPSGSY [PRE10] | 2.04 ± 0.057 | 2.19 ± 0.064 | 2.92 ± 0.063 | 2.52 ± 0.058 |
| EGNTVLEKGNNPSVKQG [SWP82] | 3.11 ± 0.067 | 3.12 ± 0.082 | 3.26 ± 0.065 | 2.87 ± 0.064 |
| ENNTDSARKELEQKIHE [SMC1] | 2.33 ± 0.1 | 2 ± 0.094 | 2.79 ± 0.086 | 3.01 ± 0.1 |
| SGWGAVVYIIKKDEVVK [PUP3] | 3.25 ± 0.088 | 2.96 ± 0.072 | 3.33 ± 0.052 | 3.27 ± 0.057 |
| YFLRRQYILQIVSFIVN [YJL039C/NUP192] | 1.2 ± 0.048 | 1.38 ± 0.068 | 1.31 ± 0.14 | 1.1 ± 0.055 |
| SFTSQGTISIQLKNGLL [MTR3] | 2.66 ± 0.05 | 2.67 ± 0.047 | 2.69 ± 0.055 | 2.61 ± 0.032 |
| HWMGSSVSGSPRPSYSS [YMR129W/POM152] | 2.98 ± 0.088 | 3.11 ± 0.089 | 2.74 ± 0.07 | 2.87 ± 0.084 |
| PIFNYIFTEKIYKSIFN [YJL039C/NUP192] | 1.33 ± 0.034 | 1.46 ± 0.04 | 1.41 ± 0.074 | 1.16 ± 0.039 |
| NERELNVFARLSRLLSL [RPC82] | 2.02 ± 0.16 | 2.07 ± 0.11 | 2.79 ± 0.13 | 2.5 ± 0.06 |
| QRQKTYVERFETQLKVV [SMC1] | 1.73 ± 0.065 | 2.51 ± 0.08 | 1.23 ± 0.2 | 1.24 ± 0.061 |
| HARGGGAISAVAATNTP [SRP54] | 1.69 ± 0.12 | 2.35 ± 0.12 | 3.07 ± 0.12 | 2.3 ± 0.12 |
| LVEAAKLLKIPKFISEA [YDL116W/NUP84] | 2.65 ± 0.081 | 2.61 ± 0.064 | 2.46 ± 0.088 | 2.76 ± 0.042 |
| ISTYISTDELVGSPLTV [POP8] | 1.49 ± 0.13 | 2.6 ± 0.1 | 2.27 ± 0.16 | 2.2 ± 0.081 |
